Positions count from the first letter of the chain named. Numbers in names are those of the source.
B1: MTSP-1 protease domain Q38V/I41G/F60eG/Y60gW/D96P/F97N/T98G/F99L/C122S/G151N/Q175L/Q192D (enzyme)
chain: VVGGTDADEGEWPWQVSLHALGVGHGCGASLISPNWLVSAAHCYIDDRGGRWSDPTQWTAFLGLHDQSQRSAPGVQERRLKRIISHPFFNPNGLDYDIALLELEKPAEYSSMVRPISLPDASHVFPAGKAIWVTGWGHTQYGGTNALILQKGEIRVINQTTCENLLPQLITPRMMCVGFLSGGVDSCDGDSGGPLSSVEADGRIFQAGVVSWGDGCAQRNKPGVYTRLPLFRDWIKENTGV
B2: MTSP-1 Q38H/I41A/D60bT/F60eK/Y60gW/F97T/ins97aE/T98G/F99L/C122S/G151N/Q175L/Q192D (enzyme)
chain: VVGGTDADEGEWPWQVSLHALGHGHACGASLISPNWLVSAAHCYIDTRGKRWSDPTQWTAFLGLHDQSQRSAPGVQERRLKRIISHPFFNDTEGLDYDIALLELEKPAEYSSMVRPISLPDASHVFPAGKAIWVTGWGHTQYGGTNALILQKGEIRVINQTTCENLLPQLITPRMMCVGFLSGGVDSCDGDSGGPLSSVEADGRIFQAGVVSWGDGCAQRNKPGVYTRLPLFRDWIKENTGV
B3: MTSP-1 protease domain Q38Y/I41A/D60bT/F60eG/Y60gW/D96V/F97N/T98G/F99L/C122S/G151H/Q175L/Q192D (enzyme)
chain: B1 chain with V23Y, G26A, D47T, P91V, N145H
B4: MTSP-1 protease domain Q38H/I41S/D60bT/F60eG/D96P/F97N/T98G/F99L/C122S/G151Q/Q175L/Q192D (enzyme)
chain: B1 chain with V23H, G26S, D47T, W52Y, N145Q
B5: MTSP-1 protease domain Q38K/I41G/D60bT/F60eG/Y60gW/D96P/F97N/T98G/F99L/C122S/G151N/Q175L/Q192D (enzyme)
chain: B1 chain with V23K, D47T
B6: MTSP-1 protease domain Q38K/I41G/D60bT/F60eG/Y60gW/D96L/F97N/T98G/F99L/C122S/G151N/Q175L/Q192D (enzyme)
chain: B1 chain with V23K, D47T, P91L
B7: MTSP-1 protease domain Q38E/I41S/D60bV/F60eK/Y60gW/D96P/F97N/T98G/F99L/C122S/G151N/Q175L/Q192D (enzyme)
chain: B1 chain with V23E, G26S, D47V, G50K
B8: MTSP-1 protease domain Q38E/I41S/D60bW/F60eG/D96M/F97N/T98G/F99L/C122S/G151N/Q175L/Q192D (enzyme)
chain: B1 chain with V23E, G26S, D47W, W52Y, P91M
B9: MTSP-1 protease domain Q38M/I41S/F60eH/Y60gW/D96Y/F97N/T98G/F99L/C122S/G151N/Q175L/Q192D (enzyme)
chain: B1 chain with V23M, G26S, G50H, P91Y
B10: MTSP-1 protease domain Q38H/I41A/D60bV/F60eR/Y60gW/D96F/F97D/ins97aE/T98G/F99M/C122S/G151N/Q175L/Q192R (enzyme)
chain: B2 chain with T47V, K50R, D91F, T92D, L95M, D189R
B11: MTSP-1 protease domain Q38H/I41A/D60bV/F60eR/Y60gW/D96F/F97E/ins97aT/T98G/F99M/C122S/G151N/Q175L/Q192G (enzyme)
chain: B2 chain with T47V, K50R, D91F, T92E, E93T, L95M, D189G
B12: MTSP-1 protease domain Q38H/I41A/D60bV/F60eR/Y60gW/D96F/F97E/ins97aS/T98G/F99M/C122S/G151N/Q175L/Q192G (enzyme)
chain: B2 chain with T47V, K50R, D91F, T92E, E93S, L95M, D189G
B13: MTSP-1 Q38H/I41S/D60bT/F60eS/Y60gW/F97D/ins97aV/T98P/F99L/C122S/G151H/Q175L/Q192E (enzyme)
chain: B2 chain with A26S, K50S, T92D, E93V, G94P, N146H, D189E
B14: MTSP-1 protease domain Q38H/I41A/D60bV/F60eR/Y60gW/D96W/F97D/ins97aD/T98G/F99L/C122S/G151N/Q175L/Q192G (enzyme)
chain: B2 chain with T47V, K50R, D91W, T92D, E93D, D189G
B15: MTSP-1 protease domain Q38H/I41A/D60bV/F60eR/Y60gW/D96F/F97Y/ins97aE/T98G/F99M/C122S/G151N/Q175L/Q192R (enzyme)
chain: B2 chain with T47V, K50R, D91F, T92Y, L95M, D189R
B16: MTSP-1 protease domain Q38H/I41A/D60bV/F60eR/Y60gW/D96W/F97D/ins97aT/T98G/F99L/C122S/G151N/Q175L/Q192G (enzyme)
chain: B2 chain with T47V, K50R, D91W, T92D, E93T, D189G
B17: MTSP-1 protease domain Q38H/I41S/D60bT/F60eK/Y60gF/D96M/F97N/T98G/F99L/C122S/G151N/Q175L/Q192D (enzyme)
chain: B1 chain with V23H, G26S, D47T, G50K, W52F, P91M
B18: MTSP-1 protease domain Q38H/I41A/D60bV/F60eR/Y60gW/D96F/F97S/ins97aH/T98G/F99L/C122S/G151N/Q175L/Q192G (enzyme)
chain: B2 chain with T47V, K50R, D91F, T92S, E93H, D189G
B19: MTSP-1 protease domain Q38H/I41A/D60bV/F60eR/Y60gW/D96F/F97Y/ins97aN/T98G/F99M/C122S/G151N/Q175L/Q192G (enzyme)
chain: B2 chain with T47V, K50R, D91F, T92Y, E93N, L95M, D189G
B20: MTSP-1 protease domain Q38H/I41S/D60bT/F60eS/Y60gW/D96F/F97S/ins97aD/T98G/F99L/C122S/G151H/Q175L/Q192D (enzyme)
chain: B2 chain with A26S, K50S, D91F, T92S, E93D, N146H
B21: MTSP-1 protease domain Q38H/I41S/D60bT/F60eS/Y60gW/D96F/F97Y/ins97aD/T98G/F99L/C122S/G151H/Q175L/Q192D (enzyme)
chain: B2 chain with A26S, K50S, D91F, T92Y, E93D, N146H
B22: MTSP-1 protease domain Q38H/I41S/D60bT/F60eS/Y60gW/D96Y/F97N/ins97aE/T98S/F99L/C122S/G151H/Q175L/Q192D (enzyme)
chain: B2 chain with A26S, K50S, D91Y, T92N, G94S, N146H
B23: MTSP-1 protease domain Q38H/I41S/D60bT/F60eS/Y60gW/D96Y/F97R/ins97aD/T98G/F99L/C122S/G151H/Q175L/Q192D (enzyme)
chain: B2 chain with A26S, K50S, D91Y, T92R, E93D, N146H
B24: MTSP-1 Q38H/I41A/D60bV/F60eR/Y60gW/D96I/F97N/T98G/F99L/C122S/G151N/Q175L/Q192D (enzyme)
chain: B1 chain with V23H, G26A, D47V, G50R, P91I
B25: MTSP-1 protease domain Q38H/I41A/D60bT/F60eK/Y60gF/F97T/ins97aE/T98G/F99L/C122S/H143R/G151N/Q175L/Q192V (enzyme)
chain: B2 chain with W52F, H139R, D189V
B26: MTSP-1 protease domain Q38Y/I41S/D60bV/F60eR/Y60gF/D96M/F97N/T98G/F99L/C122S/G151N/Q175L/Q192D (enzyme)
chain: B1 chain with V23Y, G26S, D47V, G50R, W52F, P91M
B27: MTSP-1 protease domain Q38E/I41S/D60bV/F60eK/Y60gW/D96M/F97N/T98G/F99L/C122S/G151N/Q175L/Q192D (enzyme)
chain: B1 chain with V23E, G26S, D47V, G50K, P91M
B28: MTSP-1 protease domain Q38Y/I41S/D60bT/F60eR/Y60gW/D96M/F97N/T98G/F99L/C122S/G151N/Q175L/Q192D (enzyme)
chain: B1 chain with V23Y, G26S, D47T, G50R, P91M
B29: MTSP-1 protease domain Q38H/I41S/F60eT/Y60gW/D96M/F97N/T98G/F99L/C122S/G151N/Q175L/Q192D (enzyme)
chain: B1 chain with V23H, G26S, G50T, P91M
B30: MTSP-1 protease domain Q38H/I41S/D60bT/F60eK/D96V/F97N/T98G/F99L/C122S/G151N/Q175L/Q192D (enzyme)
chain: B1 chain with V23H, G26S, D47T, G50K, W52Y, P91V
B31: MTSP-1 protease domain I41S/D60bT/F60eR/Y60gW/D96M/F97N/T98G/F99L/C122S/G151N/Q175L/Q192D (enzyme)
chain: B1 chain with V23Q, G26S, D47T, G50R, P91M
B32: MTSP-1 protease domain Q38Y/D60bT/F60eR/Y60gW/D96M/F97N/T98G/F99L/C122S/G151N/Q175L/Q192D (enzyme)
chain: B1 chain with V23Y, G26I, D47T, G50R, P91M
B33: MTSP-1 protease domain Q38Y/I41S/F60eR/Y60gW/D96M/F97N/T98G/F99L/C122S/G151N/Q175L/Q192D (enzyme)
chain: B1 chain with V23Y, G26S, G50R, P91M
B34: MTSP-1 protease domain Q38Y/I41S/D60bT/Y60gW/D96M/F97N/T98G/F99L/C122S/G151N/Q175L/Q192D (enzyme)
chain: B1 chain with V23Y, G26S, D47T, G50F, P91M
B35: MTSP-1 Q38H/I41S/D60bT/F60eS/Y60gW/D96K/ins97aV/F97G/T98P/F99L/C122S/G151H/Q175L/Q192D (enzyme)
chain: B2 chain with A26S, K50S, D91K, T92G, E93V, G94P, N146H
B36: MTSP-1 protease domain Q38Y/I41S/D60bT/F60eR/D96M/F97N/T98G/F99L/C122S/G151N/Q175L/Q192D (enzyme)
chain: B1 chain with V23Y, G26S, D47T, G50R, W52Y, P91M
B37: MTSP-1 protease domain Q38Y/I41S/D60bT/F60eR/Y60gW/F97N/T98G/F99L/C122S/G151N/Q175L/Q192D (enzyme)
chain: B1 chain with V23Y, G26S, D47T, G50R, P91D
B38: MTSP-1 protease domain Q38Y/I41S/D60bT/F60eR/Y60gW/D96M/T98G/F99L/C122S/G151N/Q175L/Q192D (enzyme)
chain: B1 chain with V23Y, G26S, D47T, G50R, P91M, N92F
B39: MTSP-1 protease domain Q38Y/I41S/D60bT/F60eR/Y60gW/D96M/F97N/F99L/C122S/G151N/Q175L/Q192D (enzyme)
chain: B1 chain with V23Y, G26S, D47T, G50R, P91M, G93T
B40: MTSP-1 protease domain Q38Y/I41S/D60bT/F60eR/Y60gW/D96M/F97N/T98G/C122S/G151N/Q175L/Q192D (enzyme)
chain: B1 chain with V23Y, G26S, D47T, G50R, P91M, L94F
B41: MTSP-1 protease domain Q38Y/I41S/D60bT/F60eR/Y60gW/D96M/F97N/T98G/F99L/C122S/G151N/Q192D (enzyme)
chain: B1 chain with V23Y, G26S, D47T, G50R, P91M, L169Q

Biological target: plasma purified human complement protein C3 (human) (UniProt P01024)
Test: cell-based or functional assay

Sequence of plasma purified human complement protein C3 (human) (P01024 23-667, chain 1 of 2): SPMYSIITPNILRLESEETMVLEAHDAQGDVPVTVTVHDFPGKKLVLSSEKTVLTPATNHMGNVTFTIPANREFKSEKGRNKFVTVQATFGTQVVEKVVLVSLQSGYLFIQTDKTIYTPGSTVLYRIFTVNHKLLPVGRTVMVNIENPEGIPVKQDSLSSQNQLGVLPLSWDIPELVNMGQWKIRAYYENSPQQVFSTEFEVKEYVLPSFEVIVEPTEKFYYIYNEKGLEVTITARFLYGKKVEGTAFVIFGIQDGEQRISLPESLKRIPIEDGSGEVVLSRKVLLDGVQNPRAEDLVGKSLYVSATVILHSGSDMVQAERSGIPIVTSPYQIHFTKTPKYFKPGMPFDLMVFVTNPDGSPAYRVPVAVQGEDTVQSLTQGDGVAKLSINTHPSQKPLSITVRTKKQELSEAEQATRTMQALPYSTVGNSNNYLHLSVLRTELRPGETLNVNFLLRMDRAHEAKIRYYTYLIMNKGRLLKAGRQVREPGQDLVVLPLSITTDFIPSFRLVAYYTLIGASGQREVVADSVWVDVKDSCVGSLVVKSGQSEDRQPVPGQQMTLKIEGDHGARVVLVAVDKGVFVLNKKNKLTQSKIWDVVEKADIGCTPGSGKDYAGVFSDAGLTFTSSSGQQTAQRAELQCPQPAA
Sequence of plasma purified human complement protein C3 (human) (P01024 672-1663, chain 2 of 2): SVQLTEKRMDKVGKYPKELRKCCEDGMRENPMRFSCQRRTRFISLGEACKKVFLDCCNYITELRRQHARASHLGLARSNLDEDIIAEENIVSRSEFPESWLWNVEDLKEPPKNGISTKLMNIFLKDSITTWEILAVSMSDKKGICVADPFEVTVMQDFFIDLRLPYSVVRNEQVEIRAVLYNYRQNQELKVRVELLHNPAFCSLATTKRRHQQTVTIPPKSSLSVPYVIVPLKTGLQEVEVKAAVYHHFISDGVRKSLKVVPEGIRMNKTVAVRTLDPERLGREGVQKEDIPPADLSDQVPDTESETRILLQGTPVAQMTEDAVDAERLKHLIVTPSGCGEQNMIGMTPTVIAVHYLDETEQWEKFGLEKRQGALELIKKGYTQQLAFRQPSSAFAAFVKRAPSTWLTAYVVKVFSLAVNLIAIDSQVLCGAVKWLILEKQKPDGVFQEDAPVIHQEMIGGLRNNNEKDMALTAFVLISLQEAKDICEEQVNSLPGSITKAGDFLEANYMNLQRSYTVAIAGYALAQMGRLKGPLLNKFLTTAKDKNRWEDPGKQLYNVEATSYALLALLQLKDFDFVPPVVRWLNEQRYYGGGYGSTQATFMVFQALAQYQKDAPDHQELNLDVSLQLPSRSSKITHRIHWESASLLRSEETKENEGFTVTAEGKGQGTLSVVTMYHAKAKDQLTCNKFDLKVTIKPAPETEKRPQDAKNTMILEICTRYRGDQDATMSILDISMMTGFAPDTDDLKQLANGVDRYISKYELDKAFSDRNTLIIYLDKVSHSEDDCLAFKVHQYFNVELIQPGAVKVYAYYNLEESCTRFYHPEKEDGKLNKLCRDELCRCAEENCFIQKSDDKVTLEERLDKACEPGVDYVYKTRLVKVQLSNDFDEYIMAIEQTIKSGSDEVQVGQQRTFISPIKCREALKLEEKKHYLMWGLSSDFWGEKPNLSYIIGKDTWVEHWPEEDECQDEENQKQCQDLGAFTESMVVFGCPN

Binder | EC50 hC3 cleavage [nM] | EC50 of hC3 cleavage [nM]
B1 | 27.4 | 
B2 |  | 14.4
B3 | 5.06 | 
B4 | 34.2 | 
B5 | 27.4 | 
B6 | 12.5 | 
B7 | 45.9 | 
B8 | 22.3 | 
B9 | 21.6 | 
B10 | 13.1 | 
B11 | 16.9 | 
B12 | 21.3 | 
B13 |  | 6.68
B14 | 5.28 | 
B15 | 7.16 | 
B16 | 4.9 | 
B17 | 20.6 | 
B18 | 3.14 | 
B19 | 3.76 | 
B20 | 5.17 | 
B21 | 3.13 | 

Binder | EC50 hC3 cleavage [nM] | EC50 of hC3 cleavage [nM]
B22 | 4.53 | 
B23 | 5.71 | 
B24 |  | 2.87
B25 | 24.5 | 
B26 | 5.25 | 
B27 | 19.1 | 
B28 | 5.12 | 
B29 | 35.7 | 
B30 | 13.3 | 
B31 | 9.47 | 
B32 | 47.7 | 
B33 | 10.4 | 
B34 | 3.08 | 
B35 |  | 6.86
B36 | 16.4 | 
B37 | 15.9 | 
B38 | 3.27 | 
B39 | 10.8 | 
B40 | 33.6 | 
B41 | 56.7 | 

Source: patent publication US20240018502A1
